Reference: the DeepSol protein solubility set

Test: soluble on expression in E. coli; label from the status in PepcDB or PDB records
With “MRAIVLLSVLISCYLVIAEDYYELLGVERDADDRTIRKAFKKLAIKKHPDRNTDDPNAHDEFVKINKAYEVLKDENLRKKYDQFGEKGLEDGFQGGNNYQSWQFYNDNFGIYDDDQEIVTLNRADFQRMVSDSNEIWFINFYSTYCSHCHQLAPTWRKFAREIEGTIRVGAVNCAEDPQLCQSQRVNAYPSLVFYPTGEFYQGHRDVELMVDFAIQRLKSEVLHLNSENWKALSEDWEPYNRLPWVVDMCGGDHIDCLSSTTRRKLSSMLDGLANVATIDCNAEEALCSKFNPITSGVMWFPARKLVKKSQINIESMDAQEISKSVIQYLDELEDISVESLQRLLEGNDPDEPIAVWMLANDAQSTERKDFRRLPALVTTQIFKFDCSKSSEICDELLDKTKLPQFMVFKTTGGYEIDYAGSKDFHAASTFIREASKSHIHVLNRDSYEYAISGGEFYIIDYFAPWCPPCMKLLGEYRRFHTATSEDSMLHTVAIGSLDCVKYKDLCQQAGVQSYPTSIVYTPDGKTHKMVGYHNVDYILEFLDNSLNPSVMEMSPEQFEELVMNRKDEETWLVDFFAPWCGPCQQLAPELQKAARQIAAFDENAHVASIDCQKYAQFCTNTQINSYPTVRMYPAKKTKQPRRSPFYDYPNHMWRNSDSIQRWVYNFLPTEVVSLGNDFHTTVLDSSEPWIVDFFAPWCGHCIQFAPIYDQIAKELAGKVNFAKIDCDQWPGVCQGAQVRAYPTIRLYTGKTGWSRQGDQGIGIGTQHKEQFIQIVRQQLKLDEHDEL” the “soluble on expression in E. coli” value was “not soluble”.
In the case of “MAHHHHHHMRQGRVRTESTVQRFAKTPIGEGFDLWDRDYLLGAMRLFLFKAETAPPFQVGPCMDATGEILVQLEELEDAREQFSIAAEKYLITQQQQLAKIMEIKALECERGPQAALEELTAFLKKETASTNATAVPAPITRAYAYQAELLLKTATPETPELFTEAVETAKLACNHAWDRVHMGYVVLGDALKASGCPDEARKAYSEAFETNRNCITALERHIEVLKEYIAESNDDMRIEALRKELLPLLESAISLHPRPTLIREKAFLLSETLGDAAALEFLDPLICNPPPEEADAAGNVGGRTVATLLKAKAAILADGGKMQEALEVAEAALKESPSDEEAKAIVAELRESL”, the “soluble on expression in E. coli” value was “soluble”.
For “VGAIMLDGKATRDEIFGDLKQRVAALDAAGRTPGLGTILVGDDPGSQAYVRGKHADCAKVGITSIRRDLPADISTATLNETIDELNANPDCTGYIVQLPLPKHLDENAALERVDPAKDADGLHPTNLGRLVLGTPAPLPCTPRGIVHLLRRYDISIAGAHVVVIGRGVTVGRPLGLLLTRRSENATVTLCHTGTRDLPALTRQADIVVAAVGVAHLLTADMVRPGAAVIDVGVSRTDDGLVGDVHPDVWELAGHVSPNPGGVGPLTRAFLLTNVVELAERR”, the “soluble on expression in E. coli” value was “soluble”.
With “MADEKMSEFTDEELNKKVKELQDAVIEKVRTEAETPAVSGGYPGSNAYRPELDRVPSREEILERISWLREMIDDILKPKPSDFDPLIEKTEKLRDLFGVESHQPGGDSRLRNIDTSKNAIQQWDGAFADNLAEKYFAPLEDVRGNHGRMAKVLNENAVAMKATYVHARGQAKRTLDDGVKAIEAIVDSKGSDLKILLAILTGATSLITPLLPSKTAVQLGSAGLSTLLSNLGEAGPEEQEEVPLGADTPEGVMDNVKEALEKVKTKRGEDEDSIIKAVNDSEKAIYERMTKSTHQTEDDPIYAPRPTIMDSSKPSEGLTKD” the “soluble on expression in E. coli” value was “not soluble”.
For “ADIVNLQGVTGGNTYSVPAVTMDLLSGKDVAVEEFPRKLLTFKEKLGEGQFGEVHLCEVEGMEKFKDKDFALDVSANQPVLVAVKMLRADANKNARNDFLKEIKIMSRLKDPNIIHLLAVCITDDPLCMITEYMENGDLNQFLSRHEPPNSSSSDVRTVSYTNLKFMATQIASGMKYLSSLNFVHRDLATRNCLVGKNYTIKIADFGMSRNLYSGDYYRIQGRAVLPIRWMSWESILLGKFTTASDVWAFGVTLWETFTFCQEQPYSQLSDEQVIENTGEFFRDQGRQTYLPQPAICPDSVYKLMLSCWRRDTKNRPSFQEIHLLLLQQGDE”, the “soluble on expression in E. coli” value was “not soluble”.
